Laboratory results from patent publication US20160272683A1 (Novo Nordisk, published 2016).
Numbered stars: 1 amine (or outer) side, 2 acyl side, 3 side chain; on linkers, the order of the positions; unused ones are H or OH. * marks the point of attachment. C20 diacid = O=C(O)CCCCCCCCCCCCCCCCCCC(=O)*; C18 diacid = O=C(O)CCCCCCCCCCCCCCCCC(=O)*; C16 diacid = O=C(O)CCCCCCCCCCCCCCC(=O)*; γGlu = O=C(O)[C@H](CCC(=O)[*:2])N[*:1]; C14 diacid = O=C(O)CCCCCCCCCCCCC(=O)*; AEEA = NCCOCCOCC(=O)O

T1: human calcitonin receptor on BHK570/CRE-luc cells (human, UniProt P30988 25-474)
T1 sequence (looked up): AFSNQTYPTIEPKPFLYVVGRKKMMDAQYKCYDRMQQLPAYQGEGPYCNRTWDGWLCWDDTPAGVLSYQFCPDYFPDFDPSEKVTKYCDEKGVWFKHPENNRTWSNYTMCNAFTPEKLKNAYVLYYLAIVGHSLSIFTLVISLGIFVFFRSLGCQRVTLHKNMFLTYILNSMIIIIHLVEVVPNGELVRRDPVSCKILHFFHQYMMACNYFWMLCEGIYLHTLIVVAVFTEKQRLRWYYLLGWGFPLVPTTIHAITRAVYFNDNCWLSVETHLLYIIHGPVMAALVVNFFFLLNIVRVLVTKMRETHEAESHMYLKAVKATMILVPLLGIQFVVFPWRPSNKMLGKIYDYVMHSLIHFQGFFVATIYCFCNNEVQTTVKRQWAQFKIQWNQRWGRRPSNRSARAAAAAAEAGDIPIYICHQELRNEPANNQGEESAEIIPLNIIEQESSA

T2: human amylin 3(a) receptor (human calcitonin receptor co-expressed with RAMP-3) on BHK570/CRE-luc cells (human, UniProt P30988 25-474; O60896 24-148)
T2 sequence (looked up) 1: T1 sequence (looked up)
T2 sequence (looked up) 2: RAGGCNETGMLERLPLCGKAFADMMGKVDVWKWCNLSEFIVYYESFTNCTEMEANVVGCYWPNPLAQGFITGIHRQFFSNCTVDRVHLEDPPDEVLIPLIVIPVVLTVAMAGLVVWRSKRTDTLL


target: T1, human calcitonin receptor on …; assay: cell-based or functional assay

Row | Binder | hCTR funct. EC50 (pM), tested with HSA
1 | {C20 diacid-γGlu}-ASELSTAALGRLSAELHELATLPRTETGSGSP-NH2 [[N-terminal(C20 diacid-gGlu), des1, 30S, 31G]mimylin] | 29 pM
2 | {C20 diacid-γGlu-AEEA}-ASELSTAALGRLSAELHELATLPRTETGSGSP-NH2 [[N-terminal(C20 diacid-gGlu-OEG), des1, 30S, 31G]mimylin] | 30 pM
3 | {C20 diacid-γGlu-AEEA-AEEA}-ASELSTAALGRLSAELHELATLPRTETGSGSP-NH2 [[N-terminal(C20 diacid-gGlu-2xOEG), des1, 30S, 31G]mimylin] | 35 pM
4 | {C20 diacid-γGlu-AEEA-AEEA-AEEA}-ASELSTAALGRLSAELHELATLPRTETGSGSP-NH2 [[N-terminal(C20 diacid-gGlu-3xOEG), des1, 30S, 31G]mimylin] | 25 pM
5 | {C20 diacid-γGlu-AEEA-AEEA-AEEA-AEEA}-ASELSTAALGRLSAELHELATLPRTETGSGSP-NH2 [[N-terminal(C20 diacid-gGlu-4xOEG), des1, 30S, 31G]mimylin] | 25 pM
6 | {C20 diacid-γGlu-AEEA-AEEA-AEEA-AEEA-AEEA}-ASELSTAALGRLSAELHELATLPRTETGSGSP-NH2 [[N-terminal(C20 diacid-gGlu-5xOEG), des1, 30S, 31G]mimylin] | 27 pM
7 | {C18 diacid-γGlu}-ASELSTAALGRLSAELHELATLPRTETGSGSP-NH2 [[N-terminal(C18 diacid-gGlu), des1, 30S, 31G]mimylin] | 11 pM
8 | {C16 diacid-γGlu}-ASELSTAALGRLSAELHELATLPRTETGSGSP-NH2 [[N-terminal(C16 diacid-gGlu), des1, 30S, 31G]mimylin] | 2 pM
9 | {C18 diacid}-ASELSTAALGRLSAELHELATLPRTETGSGSP-NH2 [[N-terminal(C18 diacid), des1, 30S, 31G]mimylin] | 8 pM
10 | {C16 diacid}-ASELSTAALGRLSAELHELATLPRTETGSGSP-NH2 [[N-terminal(C16 diacid), des1, 30S, 31G]mimylin] | 3 pM
11 | {C14 diacid-γGlu}-ASELSTAALGRLSAELHELATLPRTETGSGSP-NH2 [[N-terminal(C14 diacid-gGlu), des1, 30S, 31G]mimylin] | 4 pM
12 | {C14 diacid}-ASELSTAALGRLSAELHELATLPRTETGSGSP-NH2 [[N-terminal(C14 diacid), des1, 30S, 31G]mimylin] | 4 pM

target: T2, human amylin 3(a) receptor (human …); assay: cell-based or functional assay

Row | Binder | hAmylin-R funct. EC50 (pM), tested with HSA
13 | {C20 diacid-γGlu}-ASELSTAALGRLSAELHELATLPRTETGSGSP-NH2 [[N-terminal(C20 diacid-gGlu), des1, 30S, 31G]mimylin] | 51 pM
14 | {C20 diacid-γGlu-AEEA}-ASELSTAALGRLSAELHELATLPRTETGSGSP-NH2 [[N-terminal(C20 diacid-gGlu-OEG), des1, 30S, 31G]mimylin] | 73 pM
15 | {C20 diacid-γGlu-AEEA-AEEA}-ASELSTAALGRLSAELHELATLPRTETGSGSP-NH2 [[N-terminal(C20 diacid-gGlu-2xOEG), des1, 30S, 31G]mimylin] | 67 pM
16 | {C20 diacid-γGlu-AEEA-AEEA-AEEA}-ASELSTAALGRLSAELHELATLPRTETGSGSP-NH2 [[N-terminal(C20 diacid-gGlu-3xOEG), des1, 30S, 31G]mimylin] | 68 pM
17 | {C20 diacid-γGlu-AEEA-AEEA-AEEA-AEEA}-ASELSTAALGRLSAELHELATLPRTETGSGSP-NH2 [[N-terminal(C20 diacid-gGlu-4xOEG), des1, 30S, 31G]mimylin] | 62 pM
18 | {C20 diacid-γGlu-AEEA-AEEA-AEEA-AEEA-AEEA}-ASELSTAALGRLSAELHELATLPRTETGSGSP-NH2 [[N-terminal(C20 diacid-gGlu-5xOEG), des1, 30S, 31G]mimylin] | 66 pM
19 | {C18 diacid-γGlu}-ASELSTAALGRLSAELHELATLPRTETGSGSP-NH2 [[N-terminal(C18 diacid-gGlu), des1, 30S, 31G]mimylin] | 26 pM
20 | {C16 diacid-γGlu}-ASELSTAALGRLSAELHELATLPRTETGSGSP-NH2 [[N-terminal(C16 diacid-gGlu), des1, 30S, 31G]mimylin] | 4 pM
21 | {C18 diacid}-ASELSTAALGRLSAELHELATLPRTETGSGSP-NH2 [[N-terminal(C18 diacid), des1, 30S, 31G]mimylin] | 9 pM
22 | {C16 diacid}-ASELSTAALGRLSAELHELATLPRTETGSGSP-NH2 [[N-terminal(C16 diacid), des1, 30S, 31G]mimylin] | 4 pM
23 | {C14 diacid-γGlu}-ASELSTAALGRLSAELHELATLPRTETGSGSP-NH2 [[N-terminal(C14 diacid-gGlu), des1, 30S, 31G]mimylin] | 4 pM
24 | {C14 diacid}-ASELSTAALGRLSAELHELATLPRTETGSGSP-NH2 [[N-terminal(C14 diacid), des1, 30S, 31G]mimylin] | 6 pM
